Reference: the nanobody polyreactivity screen of Harvey et al. (2022)

test: yeast display, Sf9 membrane polyspecificity reagent, FACS + sequencing; frameworks hold sequencing errors
Method in brief: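 In a synthetic yeast display library (Saccharomyces cerevisiae BJ5465), nanobody expression was induced with galactose for 36–48 hours. FACS gates were set low and high (top ~1%) using anti-HA fluorescence for expression and streptavidin fluorescence for binding of the Sf9 membrane reagent. Each polyreactivity label is drawn from the gate of origin.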

Sequence	polyreactivity (PSR sort gate)
QVQLEESGGGLGQAGGSLRLSCAASGSTFTVNGKGWYRQPPGKERELVASITWSGGSTYYADSVKGRFTLSRDNAKYTVYLQMNSLKPEDTAVYYCAADEKLYITGYDYWGQGTQVTVSS	low polyreactivity
QVQLEESGGGLLKEGGSLRLSCAASGFTFDGYAMGWYRQAPGKERELVAVITSGGSTKYADSVKGRFTISRDNAKNTVYLQMNSLKPEVTAVYNCNVVGGRYLYSAYDYWGHGTQVTVSS	low polyreactivity
QVQLEESGGGLVKAGGSIRLSCAASGLIFYSYAMVWYRHAPGKERELVAVITRSGGNTNYADSVKGRFTISRDNAKNTVYLQMNSRKPEDTAVYYCATRGIWKKVPYYYWGQGTQVTVSS	high polyreactivity
QVQLEESGGGLVKAGGSLSLSCAASGRTFYSYAMGWYRQAPGKERELVAAISAGGSTYYADSVQGRFTSSRDNAMNTLNLQMTSLKPEDTAVYYCAATYSYYYARYHYWGQGTQVTVSS	high polyreactivity
QVQLEESGGGLVQAGASHRLSCAASGITFYWYAMGSYRQAPGKERELVAGISQSGSLTYYADSVKRRFTISRDNAKNTVYLQMKSLKPEDSAVYYCAARVRWSPSRTFEYWGQGSQVTVSS	high polyreactivity
QVQLEESGGGLVQAGASLRLSCAASGRTIAHYAMGWYRQAPGKERELVAAITRGGGTYYADSVKGRFTISRDNAKHSVYLQMNSLKPEDTAVYYCAADHSRYGYPAKTMDYWGQCTQVTVSS	low polyreactivity
QVQLEESGGGLVQAGASLRLSCDASGSIFKKYAMGWYRPAPGKEWELVPAITRGTYYADSVKGRFTISRDNAKNTVYLQMNSLKPEDTAVYYCNREFWGRGYYRVRGEYDYWGQGTQVTVSS	low polyreactivity
QVQLEESGGGLVQAGGRLRLSCAASGIIFEYYAMGGYRQAPGTERELVAAIFSGGSTYYADSVKGRFTISGDNAKNNVYLQMNSLKPEDTAVYYCAADYFAWGQGTQVTVSS	high polyreactivity
QVQLEESGGGLVQAGGRLRLSSAASGRTFMPNGMGWYRQAPGKERELVAAISWRGGSTYYADSVKGRFTISRDNAKNTVYLQMNSLKPEDTAVYYCNARVSRQYDYWGQGTEVTVSS	low polyreactivity
QVQLEESGGGLVQAGGSHRLICAASGSTFEYYAMGWYRQAPGKERELVAAINGIGGSTTYADSVKGRFTISRDTAKYTVYLQMNSLKPEDTAVYYCNADVARSKSQASAYDYWGQGTQVNVSS	low polyreactivity
QVQLEESGGGLVQAGGSHRLSCAASGSTIYAYTMGWYRQAPGKERELVARISGRGGSTYYADSVKGRFTISRDNAKNTVYLQMNSLKQEDTAVYYCAARRKFDYWGQGTQVTVSS	high polyreactivity
QVQLEESGGGLVQAGGSLPLSCASSGRIFCVYAMGWYRQAPGKESELVATITSGGSTSYADSVKGRFTISRDNANYTVYLLMNSLKPEDTAVYYCNGPYSFFWQQMNYWGHGTQVTVSS	low polyreactivity
QVQLEESGGGLVQAGGSLRISCSASGFNFRYYTMGWYRQAPGKERELVAAITSRGGSTYYADSLKGRFTISRDIAKNTVYLQMNSLKPEDTAVYYCATTSWGYEYWGQGTEVTVSS	high polyreactivity
QVQLEESGGGLVQAGGSLRLICAASGIIFYVNAMGWYRQAPGKERELVAAITFGGDSTYYADSVKGRFTISRDNAKNTVYLQMNSLKPEDTAVYYCATDGDPAYPEMEYWGQGTQVTVSS	low polyreactivity
QVQLEESGGGLVQAGGSLRLICAASGRTCGSNTMGWYRQAPGKERELVAASTISCGSTYYADSVKGRFTFSRDNAKNTVYLQMNSLKPDVTALDYCATRLWGQGGGRTTSYMYYWGQGTQVTVSS	high polyreactivity
QVQLEESGGGLVQAGGSLRLSCAACGSIFDNYAMGWYRQAPGKERELVAVISKRGGRTYYADSVKGRFTISRDNAKNTVYLQMNSLKPEDTAVYYCANGGQGSTPTSAWAKYDYWVQGTQVTVSS	high polyreactivity

Sequence	polyreactivity (PSR sort gate)
QVQLEESGGGLVQAGGSLRLSCAASGFIFAFNAMGWYRQAPGKEREMVATISWNDGGTYYADSVKGRFTISRDNAKNTVYLEMNSLKPEDTAVYYCAADWYLYLDDKYDYWGQGTQVTVSS	low polyreactivity
QVQLEESGGGLVQAGGSLRLSCAASGFIFDSYAMGWYRQAPGKERELVAAISWSGGRTYYADSVKGRFTISRDNAKNTVYLQMNSLKPEDTAVYYCNVLVHSLSGRKYDYWGQGTQVTVSS	high polyreactivity
QVQLEESGGGLVQAGGSLRLSCAASGFTFYYYTMGWYRQAPGKERELVAAITWRGGSTNYADSVKGRFTISRDNAKNTVYLQMNSLKPEEPAVYYCAAVTYWFWPGMDYWGQGTQVTVSS	low polyreactivity
QVQLEESGGGLVQAGGSLRLSCAASGFTLEYYAMGWYRKAPGKERELVAVITESDGNTYYADSVKGRFTISRDNAKNTVYLQMNSLKPEDTAVYYCAAEYRDGYRFSYDYWGQGTQVTVSS	low polyreactivity
QVQLEESGGGLVQAGGSLRLSCAASGGIFIFYAMGWYRQAPGKERELVAAISNVSSTNYADSVKGRFTISRDNAKNSVYLQMNSLKPEDTAVYYCNAVGVPSEYYSWGHGTQVTVSS	low polyreactivity
QVQLEESGGGLVQAGGSLRLSCAASGGIFWYNAMGWYRQAPGKERELVADISSSGITYYADSVKGRFTISRDNAKNTVYLQMNSLKPEDTAVYYCAADSTTRPGLRVYDDYDYWGQGTQVTVSS	low polyreactivity
QVQLEESGGGLVQAGGSLRLSCAASGGTFLAYALGWYRQAPGKERELVATITSGGSTNYADSVKGRFTISRDNAKNTVYLQMNSLKPEDTAVYYCAASGRDFIAESPYDYWGQGTQVTVSS	low polyreactivity
QVQLEESGGGLVQAGGSLRLSCAASGIIIRYYAMGWYRQAPRKERELVDSITARSGSTYYADSVKGRFSISRDYAKNTVYFQMNSLKPEDTAVYYCAKSGKPARYYYWGQGTQVTVSS	high polyreactivity
QVQLEESGGGLVQAGGSLRLSCAASGITFSLYVMGWFRPAPGKESELVATISFNVASTYADSVKGRFTISRVNAKNTVYLQMYSLTPEDTAVYYCNADTYWYRDSRYDYCGQGTQVTVSS	low polyreactivity
QVQLEESGGGLVQAGGSLRLSCAASGITIWGYTMGWYRQAPGKERELVAAITSTGSTYYADSVKGRFTISRDNAKNTVYLQMNSLKPEDTSVYYCAATRGSSEYYYWGQGTQVTVSS	low polyreactivity
QVQLEESGGGLVQAGGSLRLSCAASGLIFGWYAMGWYRQAPGKERELVAAISRRGGSTYYADSVKGRFTISRDNAKNSVFLQMNSLKPEDTAVYYCNADTYGDSYDYWGQGTQVTVSS	high polyreactivity
QVQLEESGGGLVQAGGSLRLSCAASGLTFPSNDMGCYRQAPGKERELVAASSKRGGRTYYADYVKGRFTISRDNAKNTVYLQMNSLKPEDTAVYYCATPYAFPGTVQYAGYNYWGQGTQVTVSS	high polyreactivity
QVQLEESGGGLVQAGGSLRLSCAASGLTFSRYAMGSYRQATGKERELVAAISIRGGNTYYADSVKGRFTISRDNAKNTVYLQMNSLKPEDTAVYYCNAVVYHYTLDHEYDYWGQGTQVTVSS	high polyreactivity
QVQLEESGGGLVQAGGSLRLSCAASGLTFVQYTMGWYRQAPGKERELVAVITSASSTNYADSVKGRFTISRDNAKNTVYLQMNSLKPEDPAVYYCNATTYPYYTNSYQYEYWGQGTQVTVSS	low polyreactivity
QVQLEESGGGLVQAGGSLRLSCAASGLTFVYNTMGMYRQAPGKERELVAAINWSGGRTYYADSVKGRFTISRDNAKNTVYLQMNSLKPEDTAVYYCAALYVPNTPTYKYDYWGQGTQVTVSS	low polyreactivity
QVQLEESGGGLVQAGGSLRLSCAASGLTIFVNAMGWYRQAPGKERELVATISGGGSTYYADSVKARFTISRDNAKNTVYLQMNSLKPEDTAVYYCATVWPHRFRYEYWGQGTQVTVSS	low polyreactivity
